# Source: paper PMC3135484 (Molecular Biology of the Cell, 2011)
# T1: Vps18 (individual HOPS subunit, TAP-purified) (yeast (S. cerevisiae), UniProt P27801 1-918)
# T1 sequence: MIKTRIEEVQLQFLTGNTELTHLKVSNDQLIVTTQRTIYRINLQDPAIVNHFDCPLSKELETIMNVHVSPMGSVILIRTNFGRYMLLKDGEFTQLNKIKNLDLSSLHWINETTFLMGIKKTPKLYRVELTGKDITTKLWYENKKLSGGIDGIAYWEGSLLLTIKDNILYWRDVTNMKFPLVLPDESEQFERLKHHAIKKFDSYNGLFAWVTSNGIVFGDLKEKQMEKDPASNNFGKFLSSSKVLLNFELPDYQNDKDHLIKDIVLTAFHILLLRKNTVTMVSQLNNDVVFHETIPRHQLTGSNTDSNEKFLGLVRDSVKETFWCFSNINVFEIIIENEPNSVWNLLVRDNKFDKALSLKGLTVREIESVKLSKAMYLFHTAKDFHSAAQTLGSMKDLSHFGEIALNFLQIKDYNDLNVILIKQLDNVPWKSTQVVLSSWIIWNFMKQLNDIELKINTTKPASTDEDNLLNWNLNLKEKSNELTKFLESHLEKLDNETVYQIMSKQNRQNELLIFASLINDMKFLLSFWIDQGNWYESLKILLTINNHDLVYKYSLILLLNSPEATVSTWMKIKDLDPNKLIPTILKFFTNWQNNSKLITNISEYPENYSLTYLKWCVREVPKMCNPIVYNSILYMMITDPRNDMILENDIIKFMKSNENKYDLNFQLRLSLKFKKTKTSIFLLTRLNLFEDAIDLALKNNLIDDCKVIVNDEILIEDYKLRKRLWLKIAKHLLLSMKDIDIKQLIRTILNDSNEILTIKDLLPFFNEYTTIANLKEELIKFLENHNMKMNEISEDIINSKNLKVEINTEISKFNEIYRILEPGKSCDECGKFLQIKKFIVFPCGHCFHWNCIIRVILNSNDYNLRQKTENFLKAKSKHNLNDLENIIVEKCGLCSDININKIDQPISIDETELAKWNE
# T2: Vps16 (individual HOPS subunit, TAP-purified) (yeast (S. cerevisiae), UniProt Q03308 1-798)
# T2 sequence: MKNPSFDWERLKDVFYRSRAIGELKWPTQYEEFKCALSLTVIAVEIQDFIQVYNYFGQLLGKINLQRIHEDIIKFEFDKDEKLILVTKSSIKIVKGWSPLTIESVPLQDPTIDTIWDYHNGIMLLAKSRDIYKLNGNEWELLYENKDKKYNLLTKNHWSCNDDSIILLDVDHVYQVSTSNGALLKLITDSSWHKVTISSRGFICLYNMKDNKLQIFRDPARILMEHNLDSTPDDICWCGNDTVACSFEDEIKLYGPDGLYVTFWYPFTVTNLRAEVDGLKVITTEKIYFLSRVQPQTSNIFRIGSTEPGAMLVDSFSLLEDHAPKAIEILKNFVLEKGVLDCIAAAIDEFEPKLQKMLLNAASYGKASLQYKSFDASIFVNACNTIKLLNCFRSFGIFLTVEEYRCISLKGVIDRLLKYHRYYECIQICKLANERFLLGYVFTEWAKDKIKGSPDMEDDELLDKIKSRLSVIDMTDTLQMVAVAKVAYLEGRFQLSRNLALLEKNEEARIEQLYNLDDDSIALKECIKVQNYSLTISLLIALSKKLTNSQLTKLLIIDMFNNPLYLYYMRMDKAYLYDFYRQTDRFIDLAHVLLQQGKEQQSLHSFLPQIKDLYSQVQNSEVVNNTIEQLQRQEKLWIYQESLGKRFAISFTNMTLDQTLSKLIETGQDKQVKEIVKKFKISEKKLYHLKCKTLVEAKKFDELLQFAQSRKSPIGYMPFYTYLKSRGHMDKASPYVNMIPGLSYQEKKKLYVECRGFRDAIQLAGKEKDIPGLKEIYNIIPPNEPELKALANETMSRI
# T3: Vps33 (individual HOPS subunit, Sec1/Munc18 protein, TAP-purified) (yeast (S. cerevisiae), UniProt P20795 1-691)
# T3 sequence: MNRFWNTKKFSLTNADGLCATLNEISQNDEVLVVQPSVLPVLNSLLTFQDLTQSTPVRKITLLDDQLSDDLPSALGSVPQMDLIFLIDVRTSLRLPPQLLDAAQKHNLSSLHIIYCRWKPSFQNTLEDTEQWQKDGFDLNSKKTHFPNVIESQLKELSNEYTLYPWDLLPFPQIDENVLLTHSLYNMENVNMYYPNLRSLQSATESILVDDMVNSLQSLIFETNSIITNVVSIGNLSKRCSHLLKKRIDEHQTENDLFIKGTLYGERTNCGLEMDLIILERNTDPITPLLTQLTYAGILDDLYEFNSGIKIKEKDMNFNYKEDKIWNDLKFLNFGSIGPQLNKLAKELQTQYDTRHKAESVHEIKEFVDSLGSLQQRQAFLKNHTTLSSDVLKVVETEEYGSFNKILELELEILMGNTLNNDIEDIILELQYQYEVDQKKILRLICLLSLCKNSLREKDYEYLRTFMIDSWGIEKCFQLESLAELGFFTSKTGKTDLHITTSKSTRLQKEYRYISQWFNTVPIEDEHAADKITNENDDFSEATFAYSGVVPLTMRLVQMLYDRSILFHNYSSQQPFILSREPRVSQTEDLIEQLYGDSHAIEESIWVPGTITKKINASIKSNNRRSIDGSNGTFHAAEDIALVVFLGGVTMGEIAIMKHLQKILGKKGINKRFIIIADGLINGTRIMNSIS
# T4: His-tagged Ykt6 (1-200) (S. cerevisiae, UniProt P36015 1-200)
# T4 sequence: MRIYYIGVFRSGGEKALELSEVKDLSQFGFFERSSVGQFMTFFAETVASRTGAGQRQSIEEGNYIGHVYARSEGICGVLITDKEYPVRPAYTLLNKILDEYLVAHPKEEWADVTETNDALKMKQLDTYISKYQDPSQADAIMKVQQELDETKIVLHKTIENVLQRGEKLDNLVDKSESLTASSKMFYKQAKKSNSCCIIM
# T5: His-tagged Vam3 (1-264, ΔTMD) (S. cerevisiae, UniProt Q12241 1-264)
# T5 sequence: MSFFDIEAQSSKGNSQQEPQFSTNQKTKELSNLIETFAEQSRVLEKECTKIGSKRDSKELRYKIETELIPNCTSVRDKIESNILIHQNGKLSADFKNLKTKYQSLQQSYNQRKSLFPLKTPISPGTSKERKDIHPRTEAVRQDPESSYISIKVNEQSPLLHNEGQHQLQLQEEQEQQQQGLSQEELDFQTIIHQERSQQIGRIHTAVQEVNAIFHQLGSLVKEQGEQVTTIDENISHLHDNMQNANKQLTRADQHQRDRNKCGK
# B1: GST-tagged Vam7 SNARE domain (190-316) (domain or fragment)
# chain: PSTEVTRRAALLRSLLKECDDIGTANIAQDRGRLLGVATSDNSSTTEVQGRTNNDLQQGQMQMVRDQEQELVALHRIIQAQRGLALEMNEELQTQNELLTALEDDVDNTGRRLQIANKKARHFNNSA
# Tests used:
# Test in all cases: pull-down
# [1] = target: HOPS (homotypic fusion and protein sorting) complex (yeast (S. cerevisiae), UniProt P38959;Q07468;P20795;P12868;Q03308;P27801)
# Sequence of HOPS (homotypic fusion and protein sorting) complex (P38959 whole entry, chain 1 of 3, the tested form may be a part): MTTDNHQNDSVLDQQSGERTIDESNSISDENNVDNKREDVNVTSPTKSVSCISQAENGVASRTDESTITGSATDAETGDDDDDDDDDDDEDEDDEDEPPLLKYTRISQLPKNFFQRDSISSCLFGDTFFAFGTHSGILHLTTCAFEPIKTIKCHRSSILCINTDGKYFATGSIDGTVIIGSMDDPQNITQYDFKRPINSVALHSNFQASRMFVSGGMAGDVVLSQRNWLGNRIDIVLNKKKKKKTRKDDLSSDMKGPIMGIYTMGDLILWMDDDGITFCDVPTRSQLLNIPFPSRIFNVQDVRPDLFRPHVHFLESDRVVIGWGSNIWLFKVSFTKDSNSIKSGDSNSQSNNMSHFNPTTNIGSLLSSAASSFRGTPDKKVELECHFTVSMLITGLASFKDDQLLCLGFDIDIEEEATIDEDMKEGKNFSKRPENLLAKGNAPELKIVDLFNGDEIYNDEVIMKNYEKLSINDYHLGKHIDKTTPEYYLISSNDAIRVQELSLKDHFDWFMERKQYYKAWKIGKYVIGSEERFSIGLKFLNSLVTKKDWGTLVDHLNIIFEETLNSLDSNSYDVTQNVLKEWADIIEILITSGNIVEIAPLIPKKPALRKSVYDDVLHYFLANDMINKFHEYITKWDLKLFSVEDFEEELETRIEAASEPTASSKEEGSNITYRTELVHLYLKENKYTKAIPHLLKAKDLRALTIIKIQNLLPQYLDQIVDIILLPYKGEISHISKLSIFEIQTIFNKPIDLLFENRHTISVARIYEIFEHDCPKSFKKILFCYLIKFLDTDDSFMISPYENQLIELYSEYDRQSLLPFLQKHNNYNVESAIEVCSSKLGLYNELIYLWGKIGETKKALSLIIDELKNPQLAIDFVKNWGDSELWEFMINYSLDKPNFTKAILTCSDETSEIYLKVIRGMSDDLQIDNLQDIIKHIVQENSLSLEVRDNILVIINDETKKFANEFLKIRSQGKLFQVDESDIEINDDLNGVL
# Sequence of HOPS (homotypic fusion and protein sorting) complex (Q07468 whole entry, chain 2 of 3, the tested form may be a part): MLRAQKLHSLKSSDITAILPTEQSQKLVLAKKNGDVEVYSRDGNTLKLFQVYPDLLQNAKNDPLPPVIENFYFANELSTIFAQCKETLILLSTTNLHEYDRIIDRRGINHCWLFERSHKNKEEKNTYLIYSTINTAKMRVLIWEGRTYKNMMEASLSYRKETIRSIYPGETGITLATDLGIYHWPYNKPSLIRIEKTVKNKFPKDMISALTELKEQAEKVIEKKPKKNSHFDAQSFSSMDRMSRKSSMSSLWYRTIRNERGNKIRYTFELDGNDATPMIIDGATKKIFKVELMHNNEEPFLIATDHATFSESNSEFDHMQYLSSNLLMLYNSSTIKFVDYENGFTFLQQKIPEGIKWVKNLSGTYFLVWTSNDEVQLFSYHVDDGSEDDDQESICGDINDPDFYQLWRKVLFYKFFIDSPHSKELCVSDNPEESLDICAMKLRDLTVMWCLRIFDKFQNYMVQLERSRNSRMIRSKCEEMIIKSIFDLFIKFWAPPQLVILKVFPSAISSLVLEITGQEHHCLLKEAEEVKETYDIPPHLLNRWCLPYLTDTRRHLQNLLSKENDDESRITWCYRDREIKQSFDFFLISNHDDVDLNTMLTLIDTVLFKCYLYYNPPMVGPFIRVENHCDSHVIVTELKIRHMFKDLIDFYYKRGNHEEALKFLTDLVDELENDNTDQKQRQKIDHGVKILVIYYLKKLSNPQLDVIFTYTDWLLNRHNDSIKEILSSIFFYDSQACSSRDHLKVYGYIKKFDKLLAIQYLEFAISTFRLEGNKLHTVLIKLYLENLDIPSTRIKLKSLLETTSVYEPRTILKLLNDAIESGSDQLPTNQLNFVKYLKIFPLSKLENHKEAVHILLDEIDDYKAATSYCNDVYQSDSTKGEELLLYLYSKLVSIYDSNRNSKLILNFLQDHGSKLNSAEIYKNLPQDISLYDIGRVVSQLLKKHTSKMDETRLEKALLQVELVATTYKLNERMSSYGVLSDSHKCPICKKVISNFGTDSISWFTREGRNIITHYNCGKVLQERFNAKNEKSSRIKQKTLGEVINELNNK
# Sequence of HOPS (homotypic fusion and protein sorting) complex (P12868 whole entry, chain 4 of 3, the tested form may be a part): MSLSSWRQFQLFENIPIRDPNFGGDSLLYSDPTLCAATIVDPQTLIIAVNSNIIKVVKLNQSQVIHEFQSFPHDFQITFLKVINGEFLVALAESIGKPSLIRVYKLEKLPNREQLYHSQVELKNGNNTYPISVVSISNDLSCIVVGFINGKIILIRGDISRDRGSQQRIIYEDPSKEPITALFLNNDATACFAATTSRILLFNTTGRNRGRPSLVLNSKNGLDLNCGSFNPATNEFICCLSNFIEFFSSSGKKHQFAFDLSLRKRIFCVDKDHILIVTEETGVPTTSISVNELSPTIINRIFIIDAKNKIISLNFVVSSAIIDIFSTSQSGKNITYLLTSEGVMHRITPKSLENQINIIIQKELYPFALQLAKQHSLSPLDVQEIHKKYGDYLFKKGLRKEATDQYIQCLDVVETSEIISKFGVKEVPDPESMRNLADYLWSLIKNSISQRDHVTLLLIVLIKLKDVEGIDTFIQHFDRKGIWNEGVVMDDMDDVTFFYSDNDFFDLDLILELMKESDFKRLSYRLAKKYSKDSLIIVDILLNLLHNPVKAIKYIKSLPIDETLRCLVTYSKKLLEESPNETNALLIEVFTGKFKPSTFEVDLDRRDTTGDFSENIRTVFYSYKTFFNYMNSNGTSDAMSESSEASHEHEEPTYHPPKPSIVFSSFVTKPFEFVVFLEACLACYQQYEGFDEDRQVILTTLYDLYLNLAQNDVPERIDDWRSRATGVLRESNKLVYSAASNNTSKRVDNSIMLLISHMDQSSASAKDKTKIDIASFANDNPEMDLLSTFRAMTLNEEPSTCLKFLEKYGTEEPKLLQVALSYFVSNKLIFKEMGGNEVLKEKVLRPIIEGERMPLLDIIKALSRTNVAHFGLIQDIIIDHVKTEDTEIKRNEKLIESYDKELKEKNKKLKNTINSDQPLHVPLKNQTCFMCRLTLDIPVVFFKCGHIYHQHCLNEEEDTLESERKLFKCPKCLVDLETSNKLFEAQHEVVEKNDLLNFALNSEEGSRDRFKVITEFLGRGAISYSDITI
# [2] = target: T1, Vps18 (individual HOPS subunit, …)
# [3] = target: T2, Vps16 (individual HOPS subunit, …)
# [4] = target: T3, Vps33 (individual HOPS subunit, …)
# [5] = target: B1
# [6] = target: His-tagged Vti1 (1-189, ΔTMD) (S. cerevisiae, UniProt Q04338 1-189)
# His-tagged Ykt6 (1-200) = target: T4, His-tagged Ykt6 (1-200)
# [7] = target: T5, His-tagged Vam3 (1-264, ΔTMD)
binder,measurement,setting,value
"minimal Q-SNARE complex (GST-Vam7 SD, Vam3ΔN and Vti1) (complex) chain 1: PSTEVTRRAALLRSLLKECDDIGTANIAQDRGRLLGVATSDNSSTTEVQGRTNNDLQQGQMQMVRDQEQELVALHRIIQAQRGLALEMNEELQTQNELLTALEDDVDNTGRRLQIANKKARHFNNSA chain 2: ESSYISIKVNEQSPLLHNEGQHQLQLQEEQEQQQQGLSQEELDFQTIIHQERSQQIGRIHTAVQEVNAIFHQLGSLVKEQGEQVTTIDENISHLHDNMQNANKQLTRADQHQRDRNKCGK chain 3: MSSLLISYESDFKTTLEQAKASLAEAPSQPLSQRNTTLKHVEQQQDELFDLLDQMDVEVNNSIGDASERATYKAKLREWKKTIQSDIKRPLQSLVDSGDRDRLFGDLNASNIDDDQRQQLLSNHAILQKSGDRLKDASRIANETEGIGSQIMMDLRSQRETLENARQTLFQADSYVDKSIKTLKTMTRR",binding result,[1],binds
same,binding result,[2],binds
same,binding result,[3],binds
same,binding result,[4],binds
"His-tagged Vam3ΔN (145-264, lacking the Habc domain and the TMD) (domain or fragment) ESSYISIKVNEQSPLLHNEGQHQLQLQEEQEQQQQGLSQEELDFQTIIHQERSQQIGRIHTAVQEVNAIFHQLGSLVKEQGEQVTTIDENISHLHDNMQNANKQLTRADQHQRDRNKCGK",binding result,[5],binds
B1,binding result,[6],binds
same,binding result,His-tagged Ykt6 (1-200),binds
same,binding result,[7],binds
